Measured values published in US20180339041A1 (Kyowa Kirin, published 2018).
Where “and” joins values, the source holds several entries; their conditions need not be identical. Equal values may be shown once.

Tests used:
[1] = target: T1, C-terminally FLAG-tagged human Gas6 recombinant protein (hGas6-F) (human, UniProt Q14393 31-678, gamma-carboxylated glutamic acid residues in the Gla domain (producer cells co-express rat VKOR and human GGCX); positions not given); test: SPR Biacore T100, captured antibody, Gas6 analyte, first test
T1 construct: also called human Gas6-F; human Gas6 protein
T1 sequence: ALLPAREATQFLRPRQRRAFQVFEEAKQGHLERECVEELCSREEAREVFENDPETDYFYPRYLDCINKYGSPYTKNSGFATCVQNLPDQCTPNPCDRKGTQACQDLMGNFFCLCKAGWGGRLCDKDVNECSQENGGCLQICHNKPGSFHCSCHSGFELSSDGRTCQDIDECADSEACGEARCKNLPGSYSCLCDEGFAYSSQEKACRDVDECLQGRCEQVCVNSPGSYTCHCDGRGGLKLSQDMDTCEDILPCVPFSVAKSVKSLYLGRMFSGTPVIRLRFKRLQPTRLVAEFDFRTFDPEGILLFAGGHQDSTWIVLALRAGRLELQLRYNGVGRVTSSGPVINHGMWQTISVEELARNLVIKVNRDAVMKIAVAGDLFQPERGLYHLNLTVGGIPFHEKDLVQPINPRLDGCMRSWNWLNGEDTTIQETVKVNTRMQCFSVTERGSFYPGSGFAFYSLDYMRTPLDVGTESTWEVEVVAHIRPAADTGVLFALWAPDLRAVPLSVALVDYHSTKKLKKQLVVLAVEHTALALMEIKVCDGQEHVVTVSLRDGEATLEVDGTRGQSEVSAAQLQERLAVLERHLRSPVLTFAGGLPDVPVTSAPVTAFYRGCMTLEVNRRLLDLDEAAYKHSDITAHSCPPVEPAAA
Experimental: The measurement instrument used was Biacore® T100 (manufactured by GE Healthcare Japan Corp.).
(§1) An anti-human IgG antibody was immobilized on a CM5 sensor chip (manufactured by GE Healthcare Japan Corp.) using Human Antibody Capture Kit (manufactured by GE Healthcare Japan Corp.) according to the attached manual. Each test antibody adjusted to 1 μg/mL was added for 10 seconds at a flow rate of 10 μL/min to flow cells. […] The measurement was performed by the […] method. The obtained sensorgram was analyzed using Bia Evaluation Software (manufactured by GE Healthcare Japan Corp.), and the kinetic constant of each antibody was calculated.

[2] = target: T1, C-terminally FLAG-tagged human Gas6 …; test: as above; remark: listed apart in the source
[3] = target: T1, C-terminally FLAG-tagged human Gas6 …; test: ELISA, hGas6-F captured by anti-FLAG, anti-human IgG-HRP
Experimental: First, 2 μg/mL anti-FLAG antibody [Monoclonal ANTI-FLAG M2 antibody produced in mouse (manufactured by Sigma-Aldrich Co. LLC) diluted with PBS (manufactured by Nacalai Tesque, Inc.)] was dispensed at 50 μL/well to a 96-well plate for ELISA (manufactured by Nalge Nunc International), and the plate was left standing overnight at 4° C. for adsorption. After removal of the immobilization solution, 1% BSA-PBS (manufactured by Nacalai Tesque, Inc.) was added thereto at 300 μL/well, and the plate was left standing at room temperature for 1 hour for blocking and washed five times with Tween 20-PBS (manufactured by Wako Pure Chemical Industries Ltd.).
In order to reduce the backgrounds of measurement values, the diluted secondary antibody solution was mixed with 50 μg/mL of an anti-DNP mouse IgG1 antibody and incubated at room temperature for 1 hour for use.

[4] = target: T1, C-terminally FLAG-tagged human Gas6 …; test: competitive ELISA, inhibition of hGas6-F binding to immobilised hAxl-hFc
[5] = target: T1, C-terminally FLAG-tagged human Gas6 …; test: SPR Biacore T100, captured antibody, Gas6 analyte, retest
Experimental: as §1
In this retest, unlike the test mentioned above, the number of antibodies to be measured and variations in the concentration of the analyte were decreased, and the assay was conducted for a short time (within several hours), instead of sufficiently leaving standing the analyte added to the vial. […] This minimizes the adsorption of the analyte to the vial and permits more accurate calculation of ka and KD values than that in the test mentioned above.

B1: hzKM5321 LV0HV0 antibody (antibody, V domains shown)
VH: QVHLVQSGSELKKPGASVKISCKASGYTFTNYGMNWVRQAPGQGLEWMGWINTNTGEPTYTEEFKGRFVFSLDTSVTTSYLQISTLKAEDTAVYFCARDEGWFVYWGQGTLVTVSS
VL: ETTLTQSPSSLSASVGDRVTITCITSTDIDDDMNWYQQKPGKAPKLLISEGNTLRPGVPSRFSGSGSGTDFTLTISSLQPEDFATYYCLQTDSVPLTFGQGTKVEIK
notes: Humanized; variant human IgG4 constant region (EU S228P, L235E, R409K), human kappa; also called B-02; LV0HV0
B1 was tested, and the “fold increase of KD against the KM5321 chimeric antibody” value [1] was about 3 fold, the “fold increase of kd against the KM5321 chimeric antibody” value [1] was about 3 fold and the Kd [2] was under 3.57 nM. It also gave a koff [2] of 0.000468 s⁻¹ and a kon [2] of over 131000 M⁻¹ s⁻¹.

B2: hzKM5321 LV6HV2b antibody (antibody, V domains shown)
VH: QVHLVQSGPELKKPGASVKISCKASGYTFTNYGMNWVRQAPGQGLEWMGWINTNTGEPTYTEEFKGRFVFSLDTSVTTSYLQISTLKAEDTATYFCARDEGWFVYWGQGTLVTVSS
VL: ETTLTQSPSSLSVSTGDRVTITCITSTDIDDDMNWYQQKPGKPPKLLISEGNTLRPGVPSRFSSSGSGTDFTLTISSTQPEDFADYYCLQTDSVPLTFGQGTKVEIK
notes: Humanized; variant human IgG4 constant region (EU S228P, L235E, R409K), human kappa; also called B-24; LV6HV2b
B2 was tested, and the EC50 [3] was 0.00595 µg/mL, the IC50 [4] was 0.0126 µg/mL and the Kd [5] was 0.484 nM. The koff [5] was 0.000154 s⁻¹, the kon [5] was 319000 M⁻¹ s⁻¹ and the Kd [2] was under 2.33 nM. It also gave a koff [2] of 0.000239 s⁻¹ and a kon [2] of over 103000 M⁻¹ s⁻¹.

B3: hzKM5321 LV7bHV0 antibody (antibody, V domains shown)
VH: QVHLVQSGSELKKPGASVKISCKASGYTFTNYGMNWVRQAPGQGLEWMGWINTNTGEPTYTEEFKGRFVFSLDTSVTTSYLQISTLKAEDTAVYFCARDEGWFVYWGQGTLVTVSS
VL: ETTVTQSPSSLSVSVGDRVTITCITSTDIDDDMNWYQQKPGKAPKLLISEGNTLRPGVPSRFSSSGSGTDFTFTISSTQPEDFADYYCLQTDSVPLTFGQGTKLEIK
notes: Humanized; variant human IgG4 constant region (EU S228P, L235E, R409K), human kappa; also called B-10; LV7bHV0
With B3 the EC50 [3] was 0.00669 µg/mL, the IC50 [4] was 0.0118 µg/mL and the Kd [5] was 0.403 nM. The koff [5] was 0.000142 s⁻¹, the kon [5] was 353000 M⁻¹ s⁻¹ and the Kd [2] was under 1.88 nM. For the same binder, the koff [2] was 0.000242 s⁻¹ and the kon [2] was over 129000 M⁻¹ s⁻¹.

B4: hzKM5321 LV9HV0 antibody (antibody, V domains shown)
VH: QVHLVQSGSELKKPGASVKISCKASGYTFTNYGMNWVRQAPGQGLEWMGWINTNTGEPTYTEEFKGRFVFSLDTSVTTSYLQISTLKAEDTAVYFCARDEGWFVYWGQGTLVTVSS
VL: ETTVTQSPSSLSVSTGDRVTITCITSTDIDDDMNWYQQKPGKPPKLLISEGNTLRPGVPSRFSSSGSGTDFTFTISSTQPEDFADYYCLQTDSVPLTFGQGTKLEIK
notes: Humanized; variant human IgG4 constant region (EU S228P, L235E, R409K), human kappa; also called B-11; LV9HV0
Binder B4 has a Kd [2] of under 1.96 nM, a koff [2] of 0.000247 s⁻¹ and a kon [2] of over 126000 M⁻¹ s⁻¹.

B5: hzKM5321 LV9HV7 antibody (antibody, V domains shown)
VH: QIHLVQSGPELKKPGASVKISCKASGYTFTNYGMNWVKQAPGQGLKWMGWINTNTGEPTYTEEFKGRFVFSLDTSVTTAYLQISTLKAEDTATYFCARDEGWFVYWGQGTLITVSS
VL: ETTVTQSPSSLSVSTGDRVTITCITSTDIDDDMNWYQQKPGKPPKLLISEGNTLRPGVPSRFSSSGSGTDFTFTISSTQPEDFADYYCLQTDSVPLTFGQGTKLEIK
notes: Humanized; variant human IgG4 constant region (EU S228P, L235E, R409K), human kappa; also called B-21; LV9HV7
B5 was tested, and the Kd [2] was under 3.33 nM, the koff [2] was 0.000352 s⁻¹ and the kon [2] was over 106000 M⁻¹ s⁻¹.

B6: hzKM5320 LV0HV0 antibody (antibody, V domains shown)
VH: QVQLVQSGSELKKPGASVKVSCKASGYTFTNYGMNWVRQAPGQGLEWMGWINTETGEPTYSDDFKGRFVFSLDTSVSTAYLQISSLKAEDTAVYYCAREDGYYGTLDYWGQGTTVTVSS
VL: DVVMTQSPDSLAVSLGERVTINCKASQSVSNDVAWYQQKPGQSPKLLIYYASNRYTGVPDRFSGSGSGTDFTLTISSLQAEDVAVYYCQQDYSSPWTFGQGTKLEIK
notes: Humanized; variant human IgG4 constant region (EU S228P, L235E, R409K), human kappa; also called A-02
With B6 the “fold increase of KD against the KM5320 chimeric antibody” value [1] was at least 10 fold, the “fold increase of kd against the KM5320 chimeric antibody” value [1] was about 6 fold and the Kd [2] was under 13.8 nM. It also gave a koff [2] of 0.000924 s⁻¹ and a kon [2] of over 66800 M⁻¹ s⁻¹.

B7: hzKM5320 LV5HV2 antibody (antibody, V domains shown)
VH: QVQLVQSGSELKKPGASVKVSCKASGYTFTNYGMNWVRQAPGQGLEWMGWINTETGEPTYSDDFKGRFVFSLDTSVSTAYLQISSLKAEDTATYFCAREDGYYGTLDYWGQGTTVTVSS
VL: DIVMTQSPDSLAVSLGERVTINCKASQSVSNDVAWYQQKPGQSPKVLIYYASNRYTGVPDRFSGSGSGTDFTFTISSVQAEDVAVYFCQQDYSSPWTFGQGTKLEIK
notes: Humanized; variant human IgG4 constant region (EU S228P, L235E, R409K), human kappa; also called kzKM5320 LV5HV2; A-20
B7 showed an EC50 [3] of 0.0122 µg/mL, an IC50 [4] of 0.0336 µg/mL and a Kd [5] of 1.29 nM. It also gave a koff [5] of 0.000197 s⁻¹, a kon [5] of 152000 M⁻¹ s⁻¹ and a Kd [2] of under 2.13 nM. The koff [2] was 0.000158 s⁻¹ and the kon [2] was over 74300 M⁻¹ s⁻¹.

B8: hzKM5320 LV1bHV0 antibody (antibody, V domains shown)
VH: QVQLVQSGSELKKPGASVKVSCKASGYTFTNYGMNWVRQAPGQGLEWMGWINTETGEPTYSDDFKGRFVFSLDTSVSTAYLQISSLKAEDTAVYYCAREDGYYGTLDYWGQGTTVTVSS
VL: DVVMTQSPDSLAVSLGERVTINCKASQSVSNDVAWYQQKPGQSPKLLIYYASNRYTGVPDRFSGSGSGTDFTLTISSVQAEDVAVYYCQQDYSSPWTFGQGTKLEIK
notes: Humanized; variant human IgG4 constant region (EU S228P, L235E, R409K), human kappa; also called A-04
B8 was tested, and the EC50 [3] was 0.0191 µg/mL, the IC50 [4] was 0.742 µg/mL and the Kd [5] was 16.5 nM. The koff [5] was 0.00149 s⁻¹, the kon [5] was 90000 M⁻¹ s⁻¹ and the Kd [2] was under 16 nM. The koff [2] was 0.00115 s⁻¹ and the kon [2] was over 72000 M⁻¹ s⁻¹.

B9: KM5321 chimeric antibody (antibody, V domains shown)
VH: QIQLVQSGPELKKPGETVKISCRASGYTFTNYGMNWVKQAPGKGLKWMGWINTNTGEPTYTEEFKGRFAFSLETSATTAYLQINDLKNEDTATYFCARDEGWFVYWGQGTLITVSA
VL: ETTVTQSPASLSVATGEKVTIRCITSTDIDDDMNWYQQKPGEPPKLLISEGNTLRPGVPSRFSSSGYGTDFVFTIENTLSEDVADYYCLQTDSVPLTFGAGTKLELK
notes: also called KM5321 chimera; B-01
B9 was tested, and the EC50 [3] was 0.00678 µg/mL, the IC50 [4] was 0.0123 µg/mL and the Kd [5] was 0.202 nM. The koff [5] was 7.66e-05 s⁻¹, the kon [5] was 380000 M⁻¹ s⁻¹ and the Kd [2] was under 1.16 nM. The koff [2] was 0.000141 s⁻¹ and 0.000137 s⁻¹ and the kon [2] was over 121000 M⁻¹ s⁻¹.
